Literature values as cited in paper PMC10876879, “Sustained silencing peanut allergy by xanthopurpurin is associated with suppression of peripheral and bone marrow IgE-producing B cell” (Frontiers in Immunology, 2024).

System: IgE
Parameters: method as in PMID 15025403, PMID 12637608
Settings: double-blind, randomized trial, 2003

B1: TNX-901: anti-IgE antibody (antibody, chains of the INN, looked up, V domains shown)
VH: QVQLVQSGAEVKKPGASVKVSCKASGYTFSMYWLEWVRQAPGHGLEWVGEISPGTFTTNYNEKFKARATFTADTSTNTAYMELSSLRSEDTAVYYCARFSHFSGSNYDYFDYWGQGTLVTVSS
VL: DILLTQSPGTLSLSPGERATLSCRASQSIGTNIHWYQQKPGQAPRLLIKYASESISGIPSRFSGSGSGTDFTLTISRLEPEDFAMYYCQQSDSWPTTFGQGTKVEIK
Threshold of the sensitivity of patients to peanut: significantly increased
